Series [1] has as its system HeLa Kyoto. Put plainly: solubility in G1/S (NP-40 vs SDS abundance) (log2 ratio); higher = more soluble. Conditions: cell cycle stage: G1/S.
Series [2] relates to HeLa Kyoto. Put plainly: melting temperature (median over replicates), in situ; higher = more thermally stable.
Series [3] deals with HeLa Kyoto. Put plainly: solubility change mitosis vs G1/S (difference of NP-40 vs SDS log2 ratios) (log2 ratio difference); higher = more soluble in mitosis.
Series [4] has as its system HeLa Kyoto. Put plainly: thermal stability score vs G1/S (z-score of summed log2 fold changes over temperatures); higher = more thermally stable than in G1/S.
Setting [5] is: cell cycle stage: early G1 (4.5 h after nocodazole release).
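Wherever melting temperature (median over replicates), in situ is given: HeLa Kyoto cells synchronized by double thymidine or nocodazole block, proteins quantified by TMT10plex mass spectrometry, three independent biological replicates.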
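Wherever solubility change mitosis vs G1/S (difference of NP-40 vs SDS log2 ratios) is given: synchronized HeLa Kyoto cells (double thymidine block for G1/S, nocodazole release for mitosis), protein amounts in NP-40 versus SDS lysates quantified by mass spectrometry, three biological replicates.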
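Wherever solubility in G1/S (NP-40 vs SDS abundance) is given: HeLa Kyoto cells arrested at G1/S by double thymidine block, proteins quantified by TMT10plex mass spectrometry in mild NP-40 versus SDS extracts, three biological replicates.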
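Wherever thermal stability score vs G1/S (z-score of summed log2 fold changes over temperatures) is given: synchronized HeLa Kyoto cells, proteins quantified by TMT10plex mass spectrometry, three biological replicates, mitosis taken 0.5 h after nocodazole release, G1/S directly after double thymidine block.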

Consider “MSGIKKQKTENQQKSTNVVYQAHHVSRNKRGQVVGTRGGFRGCTVWLTGLSGAGKTTISFALEEYLVSHAIPCYSLDGDNVRHGLNRNLGFSPGDREENIRRIAEVAKLFADAGLVCITSFISPFAKDRENARKIHESAGLPFFEIFVDAPLNICESRDVKGLYKRARAGEIKGFTGIDSDYEKPETPERVLKTNLSTVSDCVHQVVELLQEQNIVPYTIIKDIHELFVPENKLDHVRAEAETLPSLSITKLDLQWVQVLSEGWATPLKGFMREKEYLQVMHFDTLLDDGVINMSIPIVLPVSAEDKTRLEGCSKFVLAHGGRRVAILRDAEFYEHRKEERCSRVWGTTCTKHPHIKMVMESGDWLVGGDLQVLEKIRWNDGLDQYRLTPLELKQKCKEMNADAVFAFQLRNPVHNGHALLMQDTRRRLLERGYKHPVLLLHPLGGWTKDDDVPLDWRMKQHAAVLEEGVLDPKSTIVAIFPSPMLYAGPTEVQWHCRSRMIAGANFYIVGRDPAGMPHPETKKDLYEPTHGGKVLSMAPGLTSVEIIPFRVAAYNKAKKAMDFYDPARHNEFDFISGTRMRKLAREGENPPDGFMAPKAWKVLTDYYRSLEKN [PAPSS2]”, for which the “solubility in G1/S (log2)” value in the series with HeLa Kyoto [1] is -0.0222. Moreover, the melting temperature in the series with HeLa Kyoto [2] (cell cycle stage: G1/S) was 52.2 °C; in the series on HeLa Kyoto [2] (cell cycle stage: mitosis), 53.1 °C. Further, the “solubility change mitosis (log2)” value in the series on HeLa Kyoto [3] is -0.108. The thermal stability score with HeLa Kyoto [4] (setting [5]) was determined as 2.13; in the series with HeLa Kyoto [4] (cell cycle stage: mitosis), 3.19.
Regarding “MQPASAKWYDRRDYVFIEFCVEDSKDVNVNFEKSKLTFSCLGGSDNFKHLNEIDLFHCIDPNDSKHKRTDRSILCCLRKGESGQSWPRLTKERAKLNWLSVDFNNWKDWEDDSDEDMSNFDRFSEMMNNMGGDEDVDLPEVDGADDDSQDSDDEKMPDLE [PTGES3]”, the “solubility in G1/S (log2)” value in the series with HeLa Kyoto [1] was found to be 0.0757. In addition, the melting temperature in the series on HeLa Kyoto [2] (cell cycle stage: G1/S) stood at 48.7 °C; in the series on HeLa Kyoto [2] (cell cycle stage: mitosis) it was 49.9 °C. Besides, the “solubility change mitosis (log2)” value in the series on HeLa Kyoto [3] is -0.00282. For the same sequence, the thermal stability score in the series with HeLa Kyoto [4] (setting [5]) is 3.93; with HeLa Kyoto [4] (cell cycle stage: mitosis) it was 3.45.
On to “MASKGAGMSFSRKSYRLTSDAEKSRVTGIVQEKLLNDYLNRIFSSSEHAPPAATSRKPLNFQNLPEHLDQLLQVDNEEEESQGQVEGRLGPSTVVLDHTGGFEGLLLVDDDLLGVIGHSNFGTIRSTTCVYKGKWLYEVLISSQGLMQIGWCTISCRFNQEEGVGDTHNSYAYDGNRVRKWNVTTTNYGKAWAAGDIVSCLIDLDDGTLSFCLNGVSLGTAFENLSRGLGMAYFPAISLSFKESVAFNFGSRPLRYPVAGYRPLQDPPSADLVRAQRLLGCFRAVLSVELDPVEGRLLDKESSKWRLRGQPTVLLTLAHIFHHFAPLLRKVYLVEAVLMSFLLGIVEKGTPTQAQSVVHQVLDLLWLFMEDYEVQDCLKQLMMSLLRLYRFSPIVPDLGLQIHYLRLTIAILRHEKSRKFLLSNVLFDVLRSVVFFYIKSPLRVEEAGLQELIPTTWWPHCSSREGKESTEMKEETAEERLRRRAYERGCQRLRKRIEVVEELQVQILKLLLDNKDDNGGEASRYIFLTKFRKFLQENASGRGNMPMLCPPEYMVCFLHRLISALRYYWDEYKASNPHASFSEEAYIPPQVFYNGKVDYFDLQRLGGLLSHLRKTLKDDLASKANIVIDPLELQSTAMDDLDEDEEPAPAMAQRPMQALAVGGPLPLPRPGWLSSPTLGRANRFLSTAAVSLMTPRRPLSTSEKVKVRTLSVEQRTREDIEGSHWNEGLLLGRPPEEPEQPLTENSLLEVLDGAVMMYNLSVHQQLGKMVGVSDDVNEYAMALRDTEDKLRRCPKRRKDILAELTKSQKVFSEKLDHLSRRLAWVHATVYSQEKMLDIYWLLRVCLRTIEHGDRTGSLFAFMPEFYLSVAINSYSALKNYFGPVHSMEELPGYEETLTRLAAILAKHFADARIVGTDIRDSLMQALASYVCYPHSLRAVERIPEEQRIAMVRNLLAPYEQRPWAQTNWILVRLWRGCGFGYRYTRLPHLLKTKLEDANLPSLQKPCPSTLLQQHMADLLQQGPDVAPSFLNSVLNQLNWAFSEFIGMIQEIQQAAERLERNFVDSRQLKVCATCFDLSVSLLRVLEMTITLVPEIFLDWTRPTSEMLLRRLAQLLNQVLNRVTAERNLFDRVVTLRLPGLESVDHYPILVAVTGILVQLLVRGPASEREQATSVLLADPCFQLRSICYLLGQPEPPAPGTALPAPDRKRFSLQSYADYISADELAQVEQMLAHLTSASAQAAAASLPTSEEDLCPICYAHPISAVFQPCGHKSCKACINQHLMNNKDCFFCKTTIVSVEDWEKGANTSTTSSAA [RNF123]”, for which, in the series on HeLa Kyoto [1], the “solubility in G1/S (log2)” value was -0.366. The melting temperature in the series on HeLa Kyoto [2] (cell cycle stage: G1/S) was 50.4 °C; in the series with HeLa Kyoto [2] (cell cycle stage: mitosis), 50.3 °C. Moreover, in the series on HeLa Kyoto [3], the “solubility change mitosis (log2)” value is 0.0631. Also, the thermal stability score with HeLa Kyoto [4] (setting [5]) was -0.758; in the series on HeLa Kyoto [4] (cell cycle stage: mitosis) it was 0.258.
In the case of “MAAAAAAAAAAGAAGGRGSGPGRRRHLVPGAGGEAGEGAPGGAGDYGNGLESEELEPEELLLEPEPEPEPEEEPPRPRAPPGAPGPGPGSGAPGSQEEEEEPGLVEGDPGDGAIEDPELEAIKARVREMEEEAEKLKELQNEVEKQMNMSPPPGNAGPVIMSIEEKMEADARSIYVGNVDYGATAEELEAHFHGCGSVNRVTILCDKFSGHPKGFAYIEFSDKESVRTSLALDESLFRGRQIKVIPKRTNRPGISTTDRGFPRARYRARTTNYNSSRSRFYSGFNSRPRGRVYRGRARATSWYSPY [PABPN1]”, in the series on HeLa Kyoto [1], the “solubility in G1/S (log2)” value worked out at 0.016. The figures for the melting temperature in the series on HeLa Kyoto [2] (cell cycle stage: G1/S) and with HeLa Kyoto [2] (cell cycle stage: mitosis) were 48.9 °C and 50.5 °C, respectively. In addition, the “solubility change mitosis (log2)” value in the series with HeLa Kyoto [3] came out at 0.441. For the same sequence, the thermal stability score in the series on HeLa Kyoto [4] (setting [5]) came out at 1.6; in the series on HeLa Kyoto [4] (cell cycle stage: mitosis), 2.2.
“MNSSTSTMSEEPDALSVVNQLRDLAADPLNRRAIVQDQGCLPGLILFMDHPNPPVVHSALLALRYLAECRANREKMKGELGMMLSLQNVIQKTTTPGETKLLASEIYDILQSSNMADGDSFNEMNSRRRKAQFFLGTTNKRAKTVVLHIDGLDDTSRRNLCEEALLKIKGVISFTFQMAVQRCVVRIRSDLKAEALASAIASTKVMKAQQVVKSESGEEMLVPFQDTPVEVEQNTELPDYLPEDESPTKEQDKAVSRVGSHPEGGASWLSTAANFLSRSFYW [ARMC1]”: the “solubility in G1/S (log2)” value in the series on HeLa Kyoto [1] came to 0.386. The melting temperature in the series on HeLa Kyoto [2] (cell cycle stage: G1/S) was determined as 50.6 °C; in the series with HeLa Kyoto [2] (cell cycle stage: mitosis) it was 50.8 °C. In addition, the “solubility change mitosis (log2)” value in the series with HeLa Kyoto [3] worked out at 0.0691. Besides, the thermal stability score is 0.134 in the series with HeLa Kyoto [4] (setting [5]) and 0.316 in the series with HeLa Kyoto [4] (cell cycle stage: mitosis).

Values taken from the supplement of paper PMC5998384.
